From patent publication US20150150950 come the findings set out here.

The subject of data set [1] is inactive wildtype GST-GSK3β (K^84A kinase inactivating mutation).
Data set [2] relates to GST-GSK3β T^390A/T^43A double mutant (kinase inactive, K^84A).
Data set [3] has as its system GST-GSK3α (Cell Signaling, boiled to inactivate).
Data set [4] concerns Recombinant kinase-active GSK3α.
The subject of data set [5] is GST-GSK3β T^43A mutant (kinase inactive, K^84A).
The test system of data set [6] is purified active wildtype GST-GSK3β.
Data set [7] has as its system GST-GSK3β T^390A mutant (kinase inactive, K^84A).
The subject of data set [8] is active GST-GSK3β-T^43A mutant.
The subject of data set [9] is active GST-GSK3β-T^390A mutant.

Sequence of purified recombinant active p38 MAPK (Cell Signaling) (Q16539 2-360): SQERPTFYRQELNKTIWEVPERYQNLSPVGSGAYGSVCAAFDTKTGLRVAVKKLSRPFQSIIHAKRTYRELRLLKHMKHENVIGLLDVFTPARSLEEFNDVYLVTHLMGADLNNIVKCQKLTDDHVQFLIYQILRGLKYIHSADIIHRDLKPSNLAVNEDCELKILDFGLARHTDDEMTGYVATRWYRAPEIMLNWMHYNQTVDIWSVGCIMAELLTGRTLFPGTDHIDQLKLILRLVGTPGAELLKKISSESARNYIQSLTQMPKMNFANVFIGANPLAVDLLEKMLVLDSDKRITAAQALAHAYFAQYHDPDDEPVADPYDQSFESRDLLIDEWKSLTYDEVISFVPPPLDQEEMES
Sequence of Recombinant kinase-active GSK3α (P49840 2-483): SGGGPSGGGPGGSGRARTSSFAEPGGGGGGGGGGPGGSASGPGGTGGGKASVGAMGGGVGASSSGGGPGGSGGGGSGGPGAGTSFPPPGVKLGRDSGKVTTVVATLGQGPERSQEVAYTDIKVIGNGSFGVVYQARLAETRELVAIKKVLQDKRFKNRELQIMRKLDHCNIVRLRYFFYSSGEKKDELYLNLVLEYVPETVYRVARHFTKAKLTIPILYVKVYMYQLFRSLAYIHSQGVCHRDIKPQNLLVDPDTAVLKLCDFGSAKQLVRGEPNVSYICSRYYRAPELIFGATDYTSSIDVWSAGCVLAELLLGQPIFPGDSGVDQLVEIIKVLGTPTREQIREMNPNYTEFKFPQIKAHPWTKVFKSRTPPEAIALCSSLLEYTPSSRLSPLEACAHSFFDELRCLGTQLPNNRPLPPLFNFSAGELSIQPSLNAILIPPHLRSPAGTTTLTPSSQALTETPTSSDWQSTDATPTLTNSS
Sequence of p38 MAPK in 293T cells (Q16539 2-360): as the sequence (Q16539 2-360) above

As for p38 MAPK in 293T cells, the “in vitro p38 MAP kinase assay (^32P incorporation into GSK3β)” value in data set [1] is “p38 MAPK immunoprecipitated from MKK6 thymocytes or MKK6-transfected 293T cells phosphorylated recombinant catalytically-inactive GSK3β in vitro and this phosphorylation was blocked by the p38 MAPK inhibitor”.

With “purified recombinant active p38 MAPK (Cell Signaling)”, the entries for the “in vitro kinase assay (^32P incorporation)” value in [2], in data set [5] and in [7] were “phosphorylation of the GSK3β-T^43A/T^390A mutant was abrogated”, “p38 MAPK was still able to partially phosphorylate a GSK3β-T^43A mutant” and “Phosphorylation of the GSK3β-T^390A mutant by p38 MAPK was partially reduced but not abrogated”, respectively. Further, the “in vitro kinase assay (^32P incorporation into GSK3α)” value in data set [3] is given as “GSK3α was not phosphorylated by recombinant p38 MAPK in vitro”. Also, in [4], the “GSK3α activity (in vitro kinase assay, GSM substrate peptide) after preincubation with p38 MAPK” value is reported as “p38 MAPK did not affect the activity of GSK3α”. Moreover, the “GSK3β activity (in vitro kinase assay, GSM substrate peptide) after preincubation with p38 MAPK” value in [6] was “p38 MAPK inhibited both wild-type GSK3β and GSK3β-T^43A mutant”; in [8], “p38 MAPK inhibited both wild-type GSK3β and GSK3β-T^43A mutant”. The “in vitro kinase assay (^32P incorporation into GSK3β)” value in data set [1] is “A purified recombinant activated p38 MAPK also phosphorylated GSK3β in vitro and this phosphorylation was blocked by SB203580”.

With recombinant active Akt (Cell Signaling), the “GSK3β activity (in vitro kinase assay, GSM substrate peptide) after preincubation with Akt” value was “Akt inhibited wild-type GSK3β and the two mutants” in [6]; “Akt inhibited wild-type GSK3β and the two mutants” in data set [9]; “Akt inhibited wild-type GSK3β and the two mutants” in data set [8].

Take recombinant active ERK (Cell Signaling): the “in vitro kinase assay (^32P incorporation)” value in data set [5] and in [7] was “The T^43A mutation but not the T^390A mutation abrogated phosphorylation of GSK3β by ERK” each time.
